A value given as a limit tells only on which side of the number the result lay.

In data set [1] the test system is ADCY9 endogenous recognition site in 293H cells. Description: Meganuclease-induced mutagenesis assay at ADCY9 recognition site. Format: cell-based, human. Here is the method: The human 293H cells (ATCC) were plated at a density of 1.2×10^6 cells per 10 cm dish in complete medium (DMEM supplemented with 2 mM L-glutamine, penicillin (100 IU/ml), streptomycin (100 μg/ml), amphotericin B (Fongizone: 0.25 μg/ml, Invitrogen-Life Science) and 10% FBS). The cells were pre-treated with 5-aza-deoxycytidine at 0.2 μM or 1 μM, 48 hours before transfection and the treatment was maintained 48 hours post-transfection. The medium was changed every day. The cells were transfected with 5 μg of DNA plasmids encoding meganuclease using Lipofectamine 2000 transfection reagent (Invitrogen) according to the manufacturer's protocol.
The efficiency of the meganuclease to promote mutagenesis at its endogenous recognition site was evaluated by sequencing the DNA surrounding the meganuclease cleavage site.
Two days post-transfection, genomic DNA was extracted. 200 ng of genomic DNA were used to amplify (PCR amplification) the endogenous locus surrounding the meganuclease cleavage site. PCR amplification is performed to obtain a fragment flanked by specific adaptor sequences [adaptor A: 5′-[…]-NNNN-3′ (SEQ ID NO: 46) and adaptor B, 5′-[…]-3′ (SEQ ID NO: 47)] provided by the company offering sequencing service (GATC Biotech AG, Germany) on the 454 sequencing system (454 Life Sciences). The primers sequences used for PCR amplification were: ADCY9_F3: 5′-[…]-NNNN-[…]-3′ (SEQ ID NO: 48) and ADCY9_R3: 5′-[…]-[…]-3′ (SEQ ID NO: 49). Sequences specific to the locus are underlined. The sequence NNNN in primer F1 is a Barcode sequence (Tag) needed to link the sequence with a PCR product. The percentage of PCR fragments carrying insertion or deletion at the meganuclease cleavage site is related to the mutagenesis induced by the meganuclease through NHEJ pathway in a cell population, and therefore correlates with the meganuclease activity at its endogenous recognition site. 5000 to 10000 sequences were analyzed per conditions.

Data set [2] concerns ADCY9 endogenous locus in 293H cells. Description: Meganuclease-induced gene targeting assay, ADCY9 locus. Format: cell-based, human. To be noted: for targeted events, % of the transfected cells: ADCY9 meganuclease + repair matrix, n=2. Here is the method: FIG. 14: ADCY9 meganuclease efficiency is impaired by DNA methylation in vivo. 293H cells were co-transfected with 5 μg of […] meganuclease expressing vector or empty vector and 2 μg of DNA repair matrix vector in presence or absence of DNA methylation inhibitor (5-aza-2′deoxycytidine). 480 individual cellular clones were analyzed in each condition for the presence of targeted events using specific PCR amplification.
Cell culture as well as general transfection conditions were described in Example 4. For this assay, 293H cells were co-transfected with 5 μg of ADCY9 meganuclease expressing vector and 2 μg of DNA repair matrix. The DNA repair matrix consists of a left and right arms corresponding to isogenic sequences of 1 kb located on both sides of the meganuclease recognition site. These two homology arms are separated by a heterologous fragment of 29 bp (sequence: […], SEQ ID NO: 64). Two days post-transfection, cells were replated in 10 cm dish. Two weeks later, individual clones were picked and subsequently amplified in 96 wells plate for 3 days. 480 individual cellular clones were then analyzed per condition. DNA extraction was performed with the ZR-96 genomic DNA kit (Zymo research) according to the supplier's protocol. The detection of targeted DNA matrix integrations was performed by specific PCR amplification using the primers ADCY9_F4: 5′-[…]-3′ (specific to the 29 bp of heterologous sequence) (SEQ ID NO: 50) and ADCY9_R4: 5′-[…]-3′ (specific to a genomic sequence located outside of the homology arm) (SEQ ID NO: 51).

The subject of data set [3] is random target (stretch of 12 GA repeats). As to the kind of experiment: In vitro single turn over cleavage assay with random target. The class given is biochemical.
For data set [4], the target named is random target (stretch of 12 GA repeats). As to the kind of experiment: In vitro binding assay with random target. Here is the method: Fluorescein labeled C1234 oligonucleotides were synthesized and HPLC-purified by Eurogentec. To prepare C 1234 duplex corresponding to I-Cre I double strand DNA wild type target, C1234 forward (SEQ ID NO: 31, “a” strand below) labeled with Fluorescein on its 5′ end was mixed with 1 equivalent of C1234_reverse (SEQ ID NO: 32, “b” strand below) in 100 mM Tris-HCl, 50 mM EDTA, 150 mM NaCl, pH8. The mixture was heated to 95° C. for 2 min and then cooled down to 25° C. over 1 hour. C1234 duplex was eventually purified by anion exchange chromatography using a miniQ PE column (GE healthcare) pre-equilibrated with buffer A (20 mM Tris-HCl, pH7.4). Single stranded oligonucleotides and other contaminants were first discarded using a 0 to 360 mM NaCl step gradient and elution of pure C1234 duplex was performed with a 360-1000 mM NaCl linear gradient (5 column volumes). C 1234 duplex and fluorescein final concentrations were assessed by spectrophotometry using their respective extinction coefficients ε260nm=62900 M^−1 cm^−1 and ε495nm=83000 M^−1 cm^−1. As expected, a ratio [C1234 duplex]/[fluorescein]˜1 was obtained. […] After 30 minutes incubation, the fluorescence anisotropy of the mixture was recorded with a Pherastar Plus (BMG Labtech) operating in fluorescence polarization end point mode with excitation and emission wavelengths set to 495 and 520 nm respectively. Apparent dissociation constants were determined by fitting raw data by an hyperbolic function (Ax=(A∞*[Meganuclease])/(Kd+[Meganuclease]) with Ax, the fluorescence anisotropy value obtained at a given meganuclease concentration, A∞, the fluorescence anisotropy value obtained at saturating concentration of meganuclease and Kd the dissociation constant of the equilibrium studied).

Consider `Nc1ncn([C@H]2C[C@H](O)[C@@H](CO)O2)c(=O)n1` [5-aza-2′deoxycytidine, reference compound], for which the “mutagenesis, PCR fragments carrying a mutation” value is 0.03% in data set [1] (Empty vector, 0.2 μM 5-aza-2′-deoxycytidine) and 0.03% in data set [1] (Empty vector, 1 μM 5-aza-2′-deoxycytidine). Further, the “targeted events” value in data set [2] (absence of meganuclease, with 5-aza-2′deoxycytidine treatment) was “no targeted events could be detected”.

B1: XPC4: engineered meganuclease (SEQ ID NO: 2) designed to cleave xeroderma pigmentosum group C gene (XPC) (protein)
chain: MANTKYNEEFLLYLAGFVDGDGSIIAQIKPNQSHKFKHALQLTFKVTQKTQRRWFLDKLVDEIGVGYVQDSGSVSNYILSEIKPLHNFLTQLQPFLELKQKQANLALKIIEQLPSAKESPDKFLEVCTWVDQVAALNDSKTRKTTSETVRAVLDSLSEKKKSSPAAGGSDKYNQALSKYNQALSKYNQALSGGGGSNKKFLLYLAGFVDSDGSIIAQIKPNQSHKFKHQLSLAFQVTQKTQRRWFLDKLVDRIGVGYVRDRGSVSDYILSKIKPLHNFLTQLQPFLKLKQKQANLVLKIIEQLPSAKESPDKFLEVCTWVDQVAALNDSKTRKTTSETVRAVLDSLSEKKKSSP
A word on the kcat: it is the number of substrate molecules converted per active site and unit of time at saturation. For orientation: Kd means the concentration at which binding is half-saturated. Turning to B1, the kcat in data set [3] is less than 1.7e-06 s⁻¹. In addition, the equilibrium dissociation constant (Kd) in data set [4] was more than 1000 nM.

B2: I-CreI: wild-type I-CreI meganuclease (… homing endonuclease), SEQ ID NO: 1, recombinant Cterm His-tag (protein, listed as Chlamydomonas reinhardtii)
chain: MNTKYNKEFLLYLAGFVDGDGSIIAQIKPNQSYKFKHQLSLTFQVTQKTQRRWFLDKLVDEIGVGYVRDRGSVSDYILSEIKPLHNFLTQLQPFLKLKQKQANLVLKIIEQLPSAKESPDKFLEVCTWVDQIAALNDSKTRKTTSETVRAVLDSLSEKKKSSP
modifications: C-terminal His-tag
With B2, the kcat in data set [3] was less than 1.7e-06 s⁻¹. In data set [4], this molecule returned a Kd of more than 1000 nM.

B3: ADCY9: engineered meganuclease (SEQ ID NO: 3) designed to cleave adenylate cyclase 9 gene (protein)
chain: MANTKYNEEFLLYLAGFVDGDGSIIAQIKPNQSYKFKHQLSLTFRVTQKTQRRWFLDKLVDEIGVGYVRDSGSVSNYDLSEIKPLHNFLTQLQPFLELKQKQANLVLKIIEQLPSAKESPDKFLEVCTWVDQVAALNDSKTRKTTSETVRAVLDSLSEKKKSSPAAGGSDKYNQALSKYNQALSKYNQALSGGGGSNKKFLLYLAGFVDSDGSIIAQIKPDQSYKFKHQLGLTFQVTQKTQRRWFLDKLVDRIGVGYVRDRGSVSDYILSEIKPLHNFLTQLQPFLKLKQKQANLVLKIIEQLPSAKESPDKFLEVCTWVDQVAALNDSKTRKTTSETVRAVLDSLSEKKKSSP
For B3, the kcat in data set [3] is less than 1.7e-06 s⁻¹. For the same molecule, the “mutagenesis, PCR fragments carrying a mutation” value in data set [1] (ADCY9 meganuclease, 0 μM 5-aza-2′-deoxycytidine) was 0.16% ± 0.06; in data set [1] (ADCY9 meganuclease, 0 μM 5-aza-2′-deoxycytidine, listed as ADCY9 meganuclease) it was 0.16%±0.06; in data set [1] (ADCY9 meganuclease, 0.2 μM 5-aza-2′-deoxycytidine), 0.48% ± 0.01; in data set [1] (ADCY9 meganuclease, 1 μM 5-aza-2′-deoxycytidine), 0.36%. In addition, the mutations entry in data set [1] (ADCY9 meganuclease, samples treated with 5-aza-2′deoxycytidine, n=2) was “up to 0.48%±0.01”. Besides, the Kd in data set [4] is more than 1000 nM. Also, the “targeted events, % of the transfected cells” value is listed as 3.37%±0.66 in data set [2] (5-aza-2′deoxycytidine (0.2 μM)) and 0.70%±0.14 in data set [2] (absence of 5-aza-2′deoxycytidine). In data set [2] (with 5-aza-2′deoxycytidine (0.2 μM) vs without), the “increase of targeted event frequency” value is on record as 4.8 fold.

The values are drawn from US20130196320A1, “METHOD FOR IMPROVING CLEAVAGE OF DNA BY ENDONUCLEASE SENSITIVE TO METHYLATION” (CELLECTIS, priority 2010, published 2013).
